Test results as given in article PMC8931434.

B1: CerS2-HA [not stated] / FATP2-Flag [human] (parent)
chain 1: MLQTLYDYFWWERLWLPVNLTWADLEDRDGRVYAKASDLYITLPLALLFLIVRYFFELYVATPLAALLNIKEKTRLRAPPNATLEHFYLTSGKQPKQVEVELLSRQSGLSGRQVERWFRRRRNQDRPSLLKKFREASWRFTFYLIAFIAGMAVIVDKPWFYDMKKVWEGYPIQSTIPSQYWYYMIELSFYWSLLFSIASDVKRKDFKEQIIHHVATIILISFSWFANYIRAGTLIMALHDSSDYLLESAKMFNYAGWKNTCNNIFIVFAIVFIITRLVILPFWILHCTLVYPLELYPAFFGYYFFNSMMGVLQLLHIFWAYLILRMAHKFITGKLVEDERSDREETESSEGEEAAAGGGAKSRPLANGHPILNNNHRKND
chain 2: not shown

Variants of: B1
Assay: co-immunoprecipitation (anti-HA IP, anti-Flag western blot, quantified)
Conditions: with FATP2-Flag [human]; CerS2-/- Hek293T cells, 48 h after transfection; three independent experiments; read off a plot

response	Variant
6.2	chain 1 S341A T346A S348A S349A
1.4	chain 1 H212A H213A
